How the values were obtained:
[1] = target: T1, PfTrpA (α-subunit of tryptophan synthase from Pyrococcus furiosus) (Pyrococcus furiosus, UniProt Q8U094 1-248); assay: inferred from inhibition of enzyme activity on adding PfTrpA
T1 construct: Expressed in E. coli; Purified by Q HP HiTrap flow-through, ammonium sulfate precipitation and phenyl Sepharose chromatography; also called P. furiosus TrpA
T1 sequence (looked up): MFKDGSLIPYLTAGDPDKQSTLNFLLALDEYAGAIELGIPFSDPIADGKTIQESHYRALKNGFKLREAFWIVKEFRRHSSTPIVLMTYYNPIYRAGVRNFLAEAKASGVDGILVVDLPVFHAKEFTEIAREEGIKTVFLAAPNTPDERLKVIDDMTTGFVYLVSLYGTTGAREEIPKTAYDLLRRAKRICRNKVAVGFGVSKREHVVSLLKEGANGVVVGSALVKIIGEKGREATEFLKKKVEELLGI

[2] = target: T2, PfTrpB^4D11 (PfTrpB E17G, I68V, T292S, F274S, T321A)
T2 chain: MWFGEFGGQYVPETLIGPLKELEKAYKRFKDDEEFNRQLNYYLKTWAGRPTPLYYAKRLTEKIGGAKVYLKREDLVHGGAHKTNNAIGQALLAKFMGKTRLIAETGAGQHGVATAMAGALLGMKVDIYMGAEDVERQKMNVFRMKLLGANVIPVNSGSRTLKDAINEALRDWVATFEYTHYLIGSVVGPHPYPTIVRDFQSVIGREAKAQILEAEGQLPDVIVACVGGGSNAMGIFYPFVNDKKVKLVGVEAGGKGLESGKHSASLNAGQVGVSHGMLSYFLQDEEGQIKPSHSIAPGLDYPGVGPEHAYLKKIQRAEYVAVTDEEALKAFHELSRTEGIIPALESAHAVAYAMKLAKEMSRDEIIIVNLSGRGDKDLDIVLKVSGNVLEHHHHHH

[3] = target: T3, PfTrpB (wild-type β-subunit of tryptophan synthase from Pyrococcus furiosus)
T3 chain: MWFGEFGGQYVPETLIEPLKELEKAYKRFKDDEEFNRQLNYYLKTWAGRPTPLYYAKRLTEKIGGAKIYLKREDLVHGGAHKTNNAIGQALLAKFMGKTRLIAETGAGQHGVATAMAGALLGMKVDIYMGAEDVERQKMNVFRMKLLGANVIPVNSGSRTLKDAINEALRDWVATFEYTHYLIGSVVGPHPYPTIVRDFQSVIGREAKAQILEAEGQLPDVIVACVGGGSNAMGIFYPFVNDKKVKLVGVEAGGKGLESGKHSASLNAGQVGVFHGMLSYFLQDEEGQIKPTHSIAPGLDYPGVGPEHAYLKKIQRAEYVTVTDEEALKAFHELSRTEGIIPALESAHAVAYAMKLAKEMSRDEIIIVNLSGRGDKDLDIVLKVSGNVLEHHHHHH

[4] = target: T4, PfTrpB^0B2 (PfTrpB P12L, E17G, I68V, T292S, F274S, T321A)
T4 chain: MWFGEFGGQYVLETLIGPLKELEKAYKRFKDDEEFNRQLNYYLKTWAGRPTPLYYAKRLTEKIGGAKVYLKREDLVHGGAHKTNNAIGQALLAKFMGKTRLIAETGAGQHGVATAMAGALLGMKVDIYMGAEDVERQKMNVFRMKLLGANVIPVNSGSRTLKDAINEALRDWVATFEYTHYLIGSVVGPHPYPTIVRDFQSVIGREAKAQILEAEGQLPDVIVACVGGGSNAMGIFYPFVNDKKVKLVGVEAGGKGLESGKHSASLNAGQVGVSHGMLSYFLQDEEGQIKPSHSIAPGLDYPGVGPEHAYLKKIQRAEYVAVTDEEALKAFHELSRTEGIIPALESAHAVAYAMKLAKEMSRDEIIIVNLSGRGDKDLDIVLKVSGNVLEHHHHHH

[5] = target: T5, PfTrpB^2G9 (PfTrpB T292S)
T5 chain: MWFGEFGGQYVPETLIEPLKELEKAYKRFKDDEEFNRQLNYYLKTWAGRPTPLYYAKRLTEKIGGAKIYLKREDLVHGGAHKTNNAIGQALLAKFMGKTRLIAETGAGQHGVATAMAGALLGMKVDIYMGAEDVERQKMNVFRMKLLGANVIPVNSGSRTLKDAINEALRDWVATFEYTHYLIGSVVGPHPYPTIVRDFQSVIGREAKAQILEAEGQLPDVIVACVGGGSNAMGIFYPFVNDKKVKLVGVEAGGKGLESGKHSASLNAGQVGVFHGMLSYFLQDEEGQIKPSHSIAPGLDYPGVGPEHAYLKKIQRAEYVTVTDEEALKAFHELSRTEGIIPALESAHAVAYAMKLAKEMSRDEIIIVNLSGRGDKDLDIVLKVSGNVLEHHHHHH

[6] = target: T6, TmTrpB (wild-type β-subunit of tryptophan synthase from Thermotoga maritima)
T6 chain: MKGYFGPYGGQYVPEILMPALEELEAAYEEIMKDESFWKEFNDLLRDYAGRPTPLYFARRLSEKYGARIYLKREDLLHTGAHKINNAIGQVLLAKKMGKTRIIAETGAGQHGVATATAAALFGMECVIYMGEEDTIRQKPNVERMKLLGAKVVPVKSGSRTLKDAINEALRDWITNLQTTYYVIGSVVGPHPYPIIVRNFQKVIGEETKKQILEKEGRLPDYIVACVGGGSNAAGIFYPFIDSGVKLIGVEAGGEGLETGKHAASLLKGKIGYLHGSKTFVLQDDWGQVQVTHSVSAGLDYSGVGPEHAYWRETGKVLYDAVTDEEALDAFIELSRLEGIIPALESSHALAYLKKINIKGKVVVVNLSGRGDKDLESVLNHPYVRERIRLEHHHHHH

B1: PfTrpB^0B2 (PfTrpB P12L, E17G, I68V, T292S, F274S, T321A) (enzyme)
chain: MWFGEFGGQYVLETLIGPLKELEKAYKRFKDDEEFNRQLNYYLKTWAGRPTPLYYAKRLTEKIGGAKVYLKREDLVHGGAHKTNNAIGQALLAKFMGKTRLIAETGAGQHGVATAMAGALLGMKVDIYMGAEDVERQKMNVFRMKLLGANVIPVNSGSRTLKDAINEALRDWVATFEYTHYLIGSVVGPHPYPTIVRDFQSVIGREAKAQILEAEGQLPDVIVACVGGGSNAMGIFYPFVNDKKVKLVGVEAGGKGLESGKHSASLNAGQVGVSHGMLSYFLQDEEGQIKPSHSIAPGLDYPGVGPEHAYLKKIQRAEYVAVTDEEALKAFHELSRTEGIIPALESAHAVAYAMKLAKEMSRDEIIIVNLSGRGDKDLDIVLKVSGNVLEHHHHHH
notes: not shown: C-terminal his-tag from pET22(b)+
[1]
  binding result: binds

B2: PfTrpA (α-subunit of tryptophan synthase from Pyrococcus furiosus) (protein)
chain: MFKDGSLIPYLTAGDPDKQSTLNFLLALDEYAGAIELGIPFSDPIADGKTIQESHYRALKNGFKLREAFWIVKEFRRHSSTPIVLMTYYNPIYRAGVRNFLAEAKASGVDGILVVDLPVFHAKEFTEIAREEGIKTVFLAAPNTPDERLKVIDDMTTGFVYLVSLYGTTGAREEIPKTAYDLLRRAKRICRNKVAVGFGVSKREHVVSLLKEGANGVVVGSALVKIIGEKGREATEFLKKKVEELLGI
[2]
  kcat change with TrpA: 0.3 fold
[3]
  increase in catalytic efficiency: 12-fold increase in catalytic efficiency
  kcat change with TrpA: 3.2 fold
[4]
  kcat change with TrpA: 0.04 fold
[5]
  kcat change with TrpA: 0.34 fold

B3: TmTrpA (α-subunit of tryptophan synthase from Thermotoga maritima) (protein)
chain: MKGFIAYIPAGFPDLETTRKILIALNELGITGVEIGVPFSDPVADGPVIQLAHSVALRNGVTIKKILEMLSEISVDYDLYLMSYLNPIVNYPEGKEKLLDELKKLGVKGLIIPDLPLREVKNVDIAYPIVPFVAPNTKDEEIDLINSVQAPFVYYISRYGVTGEREDLPFADHIKRVKERIKLPLFVGFGISRHEQVKKVWEIADGVIVGSALVRIMEENPKDEIPRKVVEKVKELLGK
[6]
  kcat (s^-1) of the TmTrpS complex: 2.2 s⁻¹

Reference: patent publication US20160298152A1 (CALIFORNIA INSTITUTE OF TECHNOLOGY, published 2016)
